T1: Yfr024 SH3 (LSB3_YEAST), P43603
T1 chain: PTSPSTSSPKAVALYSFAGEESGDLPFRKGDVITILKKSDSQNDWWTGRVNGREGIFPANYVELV

T2: Boi1 SH3 (BOI1_YEAST), P38041
T2 chain: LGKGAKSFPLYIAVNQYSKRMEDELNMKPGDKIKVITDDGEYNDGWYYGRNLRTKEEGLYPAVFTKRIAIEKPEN

T3: Boi2 SH3 (BOI2_YEAST), P39969
T3 chain: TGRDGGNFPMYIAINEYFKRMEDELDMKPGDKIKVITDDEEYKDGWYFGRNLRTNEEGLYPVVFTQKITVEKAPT

T4: Yhr016c SH3 (YSC84_YEAST), P32793
T4 chain: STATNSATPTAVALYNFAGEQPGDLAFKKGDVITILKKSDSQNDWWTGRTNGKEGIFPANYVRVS

T5: Rvs167 SH3 (RV167_YEAST), P39743
T5 chain: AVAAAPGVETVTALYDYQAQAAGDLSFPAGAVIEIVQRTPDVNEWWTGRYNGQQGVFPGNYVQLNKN

T6: Myo5 SH3 (MYO5_YEAST), Q04439
T6 chain: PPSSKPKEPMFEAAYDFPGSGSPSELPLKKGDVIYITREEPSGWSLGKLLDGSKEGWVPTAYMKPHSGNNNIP

B1: YHR070W 477-490 (peptide)
chain: HLVRKVAPTKPMYS
B2: YKR067W 8-21 (peptide)
chain: HNAAKPIPHVPQAS
B3: YAL048C 356-369 (peptide)
chain: HRLFKSTPGLPKLW
B4: YNL106C 1030-1043 (peptide)
chain: HSTPKPLPPVPALS
B5: YGR010W 26-39 (peptide)
chain: HTIPKSGPIVPYVL
B6: YMR277W 194-207 (peptide)
chain: IAEWKNDPNNPNFE
B7: YKR051W 375-388 (peptide)
chain: IAGQRTFPEDPNYP
B8: YPR056W 317-330 (peptide)
chain: IAKLKRKPVVPRLK
B9: YOR322C 264-277 (peptide)
chain: IAVTRSIPRGPDKN
B10: YOR070C 339-352 (peptide)
chain: IDIPRTNPHIPLYQ
B11: YDR237W 35-48 (peptide)
chain: IDKSKLSPRFPELK
B12: YDR448W 138-151 (peptide)
chain: IESFRERPLEPPRK
B13: YML105C 200-213 (peptide)
chain: IESLREIPYGPDFD
B14: YBL066C 354-367 (peptide)
chain: IFVTRYLPYFPIMY
B15: YJL095W 1392-1405 (peptide)
chain: IGKSKSAPPIPEDT
B16: YOL138C 1121-1134 (peptide)
chain: IGSPRHAPSRPDSI

Experiments:
Test in all cases: SPOT array
[1] = biological target: T1, Yfr024 SH3 (LSB3_YEAST), P43603
[2] = biological target: T2, Boi1 SH3 (BOI1_YEAST), P38041
[3] = biological target: T3, Boi2 SH3 (BOI2_YEAST), P39969
[4] = biological target: Sho1 SH3 (SHO1_YEAST), P40073
Sho1 SH3 (SHO1_YEAST), P40073, sequence (P40073 295-366): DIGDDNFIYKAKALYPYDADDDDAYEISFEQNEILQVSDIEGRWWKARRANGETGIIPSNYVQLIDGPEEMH

[5] = biological target: T4, Yhr016c SH3 (YSC84_YEAST), P32793
[6] = biological target: T5, Rvs167 SH3 (RV167_YEAST), P39743
[7] = biological target: T6, Myo5 SH3 (MYO5_YEAST), Q04439

Binder | normalised SPOT signal, Boehringer light units (BLU); mean over the file's lines of this peptide [1] | normalised SPOT signal, Boehringer light units (BLU); mean over the file's lines of this peptide [2] | normalised SPOT signal, Boehringer light units (BLU); mean over the file's lines of this peptide [3] | normalised SPOT signal, Boehringer light units (BLU); mean over the file's lines of this peptide [4] | normalised SPOT signal, Boehringer light units (BLU); mean over the file's lines of this peptide [5] | normalised SPOT signal, Boehringer light units (BLU); mean over the file's lines of this peptide [6] | normalised SPOT signal, Boehringer light units (BLU); mean over the file's lines of this peptide [7]
B1 | 947 | 283 | 69.3 | 121 | 70.2 | 252 | 478
B2 | 8.5 | 114 | 1.8 | 82.1 | 59.3 | 20.6 | 62.3
B3 | 2840 | 226 | 123 | 642 | 96.9 | 605 | 266
B4 | 470 | 1.1 | 28.4 | 21600 | 29.9 | 94.4 | 144
B5 | 47.8 | 58.4 | 33.2 | 42.1 | 18.7 | 28.2 | 164
B6 | 0 | 69.4 | 28.7 | 25.5 | 9.5 | 20.5 | 91.1
B7 | 89.6 | 45.1 | 0 | 43.4 | 16 | 28.7 | 172
B8 | 489 | 136 | 39.8 | 57.1 | 87.4 | 29.5 | 888
B9 | 555 | 256 | 34.5 | 65 | 43.3 | 283 | 158
B10 | 34.3 | 50.1 | 3.3 | 40.3 | 0 | 9.1 | 139
B11 | 133 | 119 | 10.4 | 35.5 | 22.5 | 54.9 | 233
B12 | 2680 | 46.7 | 120 | 55.1 | 88.1 | 163 | 98.7
B13 | 2.6 | 16.4 | 22 | 47.7 | 1.9 | 14.9 | 116
B14 | 674 | 60.7 | 1150 | 115 | 180 | 373 | 157
B15 | 42.9 | 74.3 | 58.9 | 6.7 | 12.5 | 26 | 244
B16 | 1010 | 182 | 28.1 | 18.4 | 57.9 | 124 | 193

From publication PMC314469, “Protein Interaction Networks by Proteome Peptide Scanning” (PLoS Biology, 2004)
